Key:
[1] = target: 6xHis-tagged Gifsy-1 prophage repressor GfoR (Salmonella enterica serovar Typhimurium strain ATCC14028, prophage Gifsy-1); assay: SEC; Sephadex G75 column in IPE buffer (Tris-HCl 20 mM pH 8, NaCl 500 mM, Igepal 0.1%, imidazole 250 mM); about 10 ug of Ni-NTA-purified repressor (cells grown without arabinose) or co-expressed, co-purified repressor-antirepressor complex (with arabinose); calibrated with alpha-chymotrypsin, ovalbumin and BSA; fractions on SDS gel
[2] = test system: T1, GtgR (Gifsy-2 phage repressor; also written GftR) (Salmonella enterica ATCC14028, Gifsy-2 prophage), ORF:1b72f8f1; assay: EMSA; settings: 20 mM Tris-HCl pH 7.5, 50 mM NaCl, 0.2 mM EDTA (5x stock in Methods: 1 mM), 1 mM MgCl2, 5% glycerol, PMSF, 50 ug/mL sonicated salmon sperm DNA; room …
T1 sequence: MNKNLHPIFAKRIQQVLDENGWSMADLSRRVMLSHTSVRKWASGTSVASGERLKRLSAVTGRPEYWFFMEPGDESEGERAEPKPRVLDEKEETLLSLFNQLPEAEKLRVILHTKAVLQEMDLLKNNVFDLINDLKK

“3xFLAG-tagged Gifsy-1 antirepressor GfoA (natural protein)” was tested, and the stoichiometry N (GfoA per GfoR (2:2)) [1] was 1.
“6xHis-tagged Gifsy-1 prophage repressor GfoR (natural protein)” gave a stoichiometry N [1] of 2.
“GTTCGCCGATGCTCATTTGAGTCATGTGGTTACTGATTTTGATTTTTAATTGGTTGTCCATTTGGCTCTCCAGTTCTACGAGTTGGTAGCTGGAGATTATCACGTAAAACTTTAGGTTCCAACAAAAATCAATCTAATAGTTCCAATGAATAAAGAAACTGAAGGTTGTAAAATGTGAATATGAACAAAAATCTTCATCCCATTTTCGCCAAGCGTATCCAGCAAGTTCTGGATGAGAACGGCTGGTCTATGGCTGACCTCTCACGG (double strand) [Gifsy-2 right operator fragment (267 bp)]” was tested, and the binding [2] was “binds”.

Source: PMC3121763
